Source: patent US10385103B2, “Cell-permeable (ICP)-SOCS3 recombinant protein and uses thereof” (CELLIVERY THERAPEUTICS, INC., priority 2014, dated 2019)

Experiments:
STAT1 = assay: Inhibition of IFN-γ-induced STAT phosphorylation in PANC-1 cells (western blot), STAT1; type: cell-based; settings: PANC-1, 10 ng/ml IFN-γ 15 min, 10 μM protein 2 hrs
Description: PANC-1 Cells (KCLB, Seoul, South Korea) were treated with 10 ng/ml IFN-γ (R&D systems, Abingdon, UK) for 15 min and treated with either DMEM (vehicle) or 10 μM aMTD/SD-fused SOCS3 recombinant proteins for 2 hrs. The cells were lysed in RIPA lysis buffer (Biosesang, Seongnam, Korea) containing proteinase inhibitor cocktail (Roche, Indianapolis, Ind., USA), incubated for 15 min at 4° C., and centrifuged at 13,000 rpm for 10 min at 4° C. Equal amounts of lysates were separated on 10% SDS-PAGE gels and transferred to a nitrocellulose membrane. The membranes were blocked using 5% skim milk in TBST and for western blot analysis incubated with the following antibodies: anti-phospho-STAT1 (Cell Signaling Technology, USA) and anti-phospho-STAT3 (Cell Signaling Technology, USA), then HRP conjugated anti-rabbit secondary antibody (Santacruz).

RAW 264.7 cells = assay: Cell-to-cell protein transfer (flow cytometry); type: cell-based
Description: For this, RAW 264.7 cells were treated with 5 μM of FITC-labeled HM165S3B, HTS3B for 2 hour and washed with PBS two times. Thereafter, they were seeded on PANC-1 cell, incubated for 2 hours and treated with 20 ng/ml of IFN-γ for 15 minutes, followed by Western blotting in the same manner as in Example 8-1. And Cell-to-cell protein transfer was assessed by flow cytometry.
For this, RAW 264.7 cells were treated with 10 uM of FITC-labeled iCP-SOCS3 (HM165S3B) protein for 1 hour. Thereafter, these cells were co-cultured with PerCP-Cy5.5-CD 14-stained RAW 264.7 cells for 2 hours. Cell-to-cell protein transfer was assessed by flow cytometry, scoring for CD14/FITC double-positive cells.

[1] = test system: tumor tissues (Hep3B CDX, HepG2 CDX); assay: Biomarker expression in xenograft tumor tissues (RT-PCR, Western blotting, IHC); type: in vivo, Balb/c nu/nu mice
Description: Tumor tissues were finely minced using a homogenizer according to the manufacturer's protocol of Hybrid-R (geneall, Korea), and then mRNA was isolated therefrom. 1 ug of mRNA thus separated was used to synthesize cDNA using an Accupower RT Premix (Bioneer, Korea). PCR was performed using 2 ul of cDNA and the primers of Table 45. PCR was performed using an Accupower PCR Premix (Bioneer, Korea) for 30 cycles consisting of denaturing (95° C.), annealing (60° C.), and extending (72° C.) for 45 seconds each.
Immunohistochemistry (IHC) Tissue samples were fixed in 4% Paraformaldehyde (Duksan, South Korea) for 3 days, dehydrated, cleared with xylene and embedded in Paraplast. Sections (6 μm thick) of tumor were placed onto poly-L-lysine coated slides. To block endogenous peroxidase activity, sections were incubated for 15 min with 3% H2O2 in methanol. After washing three times with PBS, slides were incubated for 30 min with blocking solution (5% fetal bovine serum in PBS). Mouse anti-Bax antibody (sc-7480, Santa Cruz Biotechnology, SantaCruz, Calif., USA) and rabbit anti-VEGF (ab46154, Abcam, Cambridge, UK) were diluted 1:1000 (to protein concentration 0.1 μg/ml) in blocking solution, applied to sections, and incubated at 4° C. for 24 hrs. After washing three times with PBS, sections were incubated with biotinylated mouse and rabbit IgG (Vector Laboratories, Burlingame, Calif., USA) at a 1:1000 dilution for 1 hr at room temperature, then incubated with avidin-biotinylated peroxidase complex using a Vectorstain ABC Kit (Vector Laboratories, Burlingame, Calif., USA) for 30 min at room temperature. After the slides are reacted with oxidized 3, 3-diaminobenzidine as a chromogen, they were counterstained with Harris hematoxylin (Sigma-Aldrich, USA). Permanently mounted slides were observed and photographed using a microscope equipped with a digital imaging system (ECLIPSE Ti, Nikon, Japan).
mRNA levels were analyzed using the tumor tissues removed at 2 weeks (Hep3B CDX, day 35) or 3 weeks (HepG2 CDX, day 42) after termination of drug administration to analyze changes in expressions of major biomarker genes by iCP-SOCS3.
Further, tumors removed at 2 weeks (Hep3B CDX, day 35) or 3 weeks (HepG2 CDX, day 42) after termination of drug administration were used to perform Western blotting and IHC, and increase or decrease in the expressions of cancer activity regulating factors by iCP-SOCS3 was observed.

Chang liver cells = assay: Wound cell migration assay; type: cell-based, human; settings: 10 μM 2 hrs, additional 24-72 hrs
Description: (§1) Cells were seeded into 12-well plates, grown to 90% confluence, and incubated with 10 μM Non-CP-SOCS3 (HS3B), iCP-SOCS3 (HM165S3B) in serum-free medium for 2 hrs prior to changing the growth medium (recommended medium by the supplier). The cells were washed twice with PBS, and the monolayer at the center of the well was “wounded” by scraping with a pipette tip. Cells were cultured for an additional 24-72 hrs and cell migration was observed by phase contrast microscopy (Nikon, ECLIPSE Ts2). The migration was quantified by counting the number of cells that migrated from the wound edge into the clear area.

HepG2 cells = assay: Wound cell migration assay; type: cell-based, human; settings: 10 μM 2 hrs, additional 24-72 hrs
Description: as §1

Huh-7 cells = assay: Wound cell migration assay; type: cell-based, human; settings: 10 μM 2 hrs, additional 24-72 hrs
Description: as §1

[2] = test system: HCCs (Hep3B, HepG2, Huh7 and SK-HEP-1); assay: Inhibition of cell cycle progression (PI staining, flow cytometry); type: cell-based, human; settings: 10 uM, 8 hrs
Description: To further determine the effect of iCP-SOCS3 on the tumorigenicity of hepatocellular carcinoma cells, we subsequently investigated whether iCP-SOCS3 regulates cell cycle progression in HCCs (Hep3B, HepG2, Huh7 and SK-HEP-1).
HCCs and normal cells were treated with 10 uM protein (Non-CP-SOCS3 (HS3B) and iCP-SOSC3 (HM165S3B)) for 8 hrs. After the treatment, cells were washed twice with cold PBS and re-suspended in 1 ml cold PBS, fixed in cold 70% ethanol, washed with cold PBS twice and re-suspended in PI master mix (PI 10 ug/ml (SIGMA, USA), 50 ug/ml RNase A (Invitrogen, USA) in staining buffer) at a final cell density of 2×10^5 cell/ml. The cell mixtures were incubated 30 min in the dark at 4° C. Flow cytometric analysis was immediately performed using a guava easyCyte™ 8 Instrument (Merck Millipore, Darmstadt, Germany).

[3] = day 35 (Hep3B CDX) or day 42 (HepG2 CDX)

B1: HM165S3B: His-tagged recombinant protein of aMTD165, human SOCS3 and solubilization domain B; prototype improved cell-permeable SOCS3 (protein)
chain: MGSSHHHHHHSSGLVPRGSHMALAVPVALAIVPVTHSKFPAAGMETSRPLDTSLRLKTFSSKSEYQLVVNAVRKLQESGFYWSAVTGGEANLLLSAEPAGTFLIRDSSDQRHFFTLSVKTQSGTKNLRIQCEGGSFSLQSDPRSTQPVPRFDCVLKLVHHYMETPPPGAPSFPSPPTEPSSEVPEQPSAQPLPGSPPRRAYYIYSGGEKIPLVLSRPLSSNVATLQHLCRKTVNGHLDSYEKVTQLPGPIREFLDQYDAPLGSMAEQSDKDVKYYTLEEIQKHKDSKSTWVILHHKVYDLTKFLEEHPGGEEVLGEQAGGDATENFEDVGHSTDARELSKTYIIGELHPDDRSKIAKPSETL
modifications: Amino acid sequence of HM165S3B
With B1 as the molecule, how does the “IFN-γ-induced phosphorylation of STAT1” value (STAT1) read?
Its value is “suppressed IFN-γ-induced phosphorylation of STAT1 and STAT3”.

And the “cell-to-cell protein transfer (CD14/FITC double-positive cells)” value (RAW 264.7 cells; 10 uM FITC-labeled protein 1 hour, co-culture with CD14-stained RAW 264.7 cells 2 hours)?
Its value is “Efficient cell-to-cell transfer”.

What about the cell-to-cell protein transfer (RAW 264.7 cells; RAW 264.7 treated with 5 μM FITC-labeled protein 2 hour, seeded on PANC-1 cell 2 hours) of the same molecule?
Its cell-to-cell protein transfer is “efficient cell-to-cell transfer”.

And the “expression of Bax in tumor tissues” value ([1]; Western blotting and IHC)?
The value was “increased”.

And the “expression of Bcl-2 in tumor tissues” value ([1]; Western blotting and IHC)?
Its value is “decreased”.

And the “expression of VEGF in tumor tissues” value ([1]; Western blotting and IHC)?
The value was “remarkably decreased”.

What about the “expression of p21 in tumor tissues” value ([1]; Western blotting and IHC) of the same molecule?
Its value is “increased”.

And the “expression of GOLPH2 in tumor tissues” value [1, 3]?
The value was “remarkably reduced”.

What about the “mRNA expressions of Bax, cyclinD1, cyclinE, PCNA, VEGF, FAK-related genes in tumor tissues” value [1, 3] of the same molecule?
The value was “significantly regulated”.

And the “wound cell migration, normal Chang liver cells” value (Chang liver cells)?
Its value is “had no effect on the cell migration”.

What about the “wound cell migration, HepG2” value (HepG2 cells) of the same molecule?
The value was “suppressed the repopulation of wounded monolayer”.

And the “wound cell migration, Huh-7” value (Huh-7 cells)?
The value was “suppressed the repopulation of wounded monolayer”.

And the “cell cycle progression in HCCs” value [2]?
Its value is “efficiently inhibited cell cycle progression”.
